Measured values: paper PMC12329532 (2025)

Key:
Experiment in all cases: FP
[1] = target: His6-IDO1 K101A, purified (human, UniProt P14902 1-403, K101A, Alexa Fluor 488 on Cys groups)
[2] = target: His6-IDO1 K101D, purified (human, UniProt P14902 1-403, K101D, Alexa Fluor 488 on Cys groups)
[3] = target: N-terminally His6-tagged human IDO1 (indoleamine 2,3-dioxygenase 1), purified apo-IDO1 (human, UniProt P14902 1-403, Alexa Fluor 488 on Cys groups (in the fluorescence polarisation assay only))
Sequence of N-terminally His6-tagged human IDO1 (indoleamine 2,3-dioxygenase 1), purified apo-IDO1 (P14902 whole entry): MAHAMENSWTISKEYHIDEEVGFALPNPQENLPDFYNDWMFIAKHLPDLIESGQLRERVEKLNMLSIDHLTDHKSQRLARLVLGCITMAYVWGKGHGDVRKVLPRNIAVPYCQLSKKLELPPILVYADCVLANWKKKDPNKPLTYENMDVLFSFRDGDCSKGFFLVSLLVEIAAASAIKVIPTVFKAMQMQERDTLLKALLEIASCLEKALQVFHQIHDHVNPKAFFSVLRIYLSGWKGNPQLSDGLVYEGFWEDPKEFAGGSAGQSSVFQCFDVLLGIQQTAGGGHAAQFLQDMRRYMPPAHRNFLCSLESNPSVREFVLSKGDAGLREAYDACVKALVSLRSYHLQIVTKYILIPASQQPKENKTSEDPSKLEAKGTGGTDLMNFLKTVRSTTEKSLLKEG

Kd [1]: 4.66 µM
Kd [2]: 4.45 µM
Kd [3]: 1.79 µM
B1: human recombinant TC-GAPDH (GAPDH with a tetra-Cys insertion sequence near its heme binding site), wild type, purified (enzyme)
chain: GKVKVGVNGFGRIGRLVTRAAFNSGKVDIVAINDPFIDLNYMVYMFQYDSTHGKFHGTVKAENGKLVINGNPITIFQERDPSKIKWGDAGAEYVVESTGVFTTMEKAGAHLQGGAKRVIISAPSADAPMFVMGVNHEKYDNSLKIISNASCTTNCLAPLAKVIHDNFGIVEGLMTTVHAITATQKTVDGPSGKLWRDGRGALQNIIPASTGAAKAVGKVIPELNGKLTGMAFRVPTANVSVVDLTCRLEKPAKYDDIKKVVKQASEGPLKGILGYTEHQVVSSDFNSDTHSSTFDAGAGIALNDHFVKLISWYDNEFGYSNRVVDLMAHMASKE
